Source: paper PMC11302665

How the values were obtained:
[1] = target: L-cysteine desulfurase IscS (E. coli) (UniProt P0A6B7); assay: native MS; ~8 µM IscS (~4 µM dimeric IscS) titrated with increasing TusA in 250 mM ammonium acetate, pH 8.0; fractional intensities fitted to a sequential binding model (Dynafit)
[2] = target: L-cysteine desulfurase IscS (E. coli) (UniProt P0A6B7)
IscS (Escherichia coli) = IscS (Escherichia coli) (UniProt P0A6B7); assay: native mass spectrometry; conditions: cited from earlier work
[3] = target: R220/223/225E triple variant of IscS (E. coli) (UniProt P0A6B7); assay: native MS; ESI-MS under non-denaturing conditions of IscS alone, 250 mM ammonium acetate, pH 8.0

Kd [1] [µM] | Substance | also measured
8 | TusA C19S variant (from UniProt P0A890 1-81) (natural protein) | –
8 | TusA (from UniProt P0A890 1-81) (natural protein) | L-cysteine desulfurase activity of IscS (methylene blue assay) after addition of TusA [2]: 3 fold
– | IscU (from UniProt P0ACD4) | Kd (IscS (Escherichia coli)): 3 µM
– | R220/223/225E triple variant of IscS (from UniProt P0A6B7 1-404) (enzyme) | stoichiometry N [3]: 2
8 | TusA C56A variant (from UniProt P0A890 1-81) (natural protein) | –
